Patent US20190367617A1 (AMPSOURCE BIOPHARMA SHANGHAI, published 2019)

Legend:
[1] = molecular target: T1, human ICOS/Fc (Sino Biological Inc.) (human, UniProt Q9Y6W8 21-141, limits assumed); test: indirect ELISA, human ICOS/Fc coated at 0.1 µg/mL, HRP goat anti-mouse IgG
T1 construct: Bought protein; not shown: Fc
T1 sequence (looked up): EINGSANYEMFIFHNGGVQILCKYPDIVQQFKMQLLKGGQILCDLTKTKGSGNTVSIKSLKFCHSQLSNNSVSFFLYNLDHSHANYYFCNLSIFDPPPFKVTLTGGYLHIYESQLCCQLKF
Procedure: (§1) Human PD-1/His, human ICOS/Fc, human CTLA4/His, human CD28/Fc, cynomolgus monkey PD-1/Fc, and mouse PD-1/His (all from Sino Biological Inc., Beijing, China) were diluted with PBS buffer to 0.1 μg/mL, and added to the 96-well plate at a volume of 100 μL/well and placed at 16° C. for 16 to 20 h. The PBS buffer was aspirated from the 96-well plate, and the plate was washed once with PBST (PBS containing 0.05% Tween 20, pH 7.4). 200 μL of PBST/1% no-fat milk was added to each well and incubated at room temperature for 1 h for blocking. The blocking solution was removed and the plate was washed 3 times with PBST. 100 μL of the anti-PD-1 antibody to be tested was added to each well, and incubated at room temperature for 1.5 h. The reaction solution was removed and the plate was washed 3 times with PBST. 50 μL of the HRP-labeled goat anti-mouse IgG secondary antibody (The Jackson Laboratory) diluted (dilution ratio 1:4000) was added to each well. Incubated at room temperature for 1 h. The plate was washed 3 times with PBST. 100 μL of the TMB was added to each well and incubated at room temperature for 5-10 min 50 μL of 0.2 M sulfuric acid was added to each well to terminate the reaction. Absorbance values were read at dual wavelengths of 450/620 nm in a microplate reader.

[2] = molecular target: T2, human CD28/Fc (Sino Biological Inc.) (human, UniProt P10747 19-152); test: indirect ELISA, human CD28/Fc coated at 0.1 µg/mL, HRP goat anti-mouse IgG
T2 construct: Bought protein; not shown: Fc
Procedure: as §1

[3] = molecular target: T3, human PD-1/His (Sino Biological Inc.) (human, UniProt Q15116 25-170); test: BLI (Octet), human PD-1/His on Ni-NTA sensor, antibody 3.125-100 nM
T3 construct: extracellular domain; Bought protein; also called extracellular domain fragment of PD-1 protein containing His tag; not shown: His tag
Source text: We used the bio-layer interferometry (BLI) technique to characterize the binding kinetics and affinity of purified murine monoclonal antibodies. According to the standard procedure, the Octet molecular interaction instrument (ForteBio Octet RED & QK system, PALL corp.) was operated. […] The antigen-antibody association and dissociation kinetics were then tracked.

[4] = molecular target: T4, human CTLA4/His (Sino Biological Inc.) (human, UniProt P16410 36-162, limits assumed); test: indirect ELISA, human CTLA4/His coated at 0.1 µg/mL, HRP goat anti-mouse IgG
T4 construct: Bought protein; not shown: His tag
Procedure: as §1

[5] = molecular target: T3, human PD-1/His (Sino Biological Inc.); test: indirect ELISA, human PD-1/His coated at 0.1 µg/mL, HRP goat anti-mouse IgG
Procedure: as §1

[6] = molecular target: T5, cynomolgus monkey PD-1/Fc (Sino Biological Inc.) (cynomolgus monkey, UniProt B0LAJ3 25-170); test: indirect ELISA, cynomolgus monkey PD-1/Fc coated at 0.1 µg/mL, HRP goat anti-mouse IgG
T5 construct: Bought protein
Procedure: as §1

[7] = molecular target: T6, mouse PD-1/His (Sino Biological Inc.) (mouse, UniProt Q02242 25-167); test: indirect ELISA, mouse PD-1/His coated at 0.1 µg/mL, HRP goat anti-mouse IgG
T6 construct: Bought protein; not shown: His tag
T6 sequence (looked up): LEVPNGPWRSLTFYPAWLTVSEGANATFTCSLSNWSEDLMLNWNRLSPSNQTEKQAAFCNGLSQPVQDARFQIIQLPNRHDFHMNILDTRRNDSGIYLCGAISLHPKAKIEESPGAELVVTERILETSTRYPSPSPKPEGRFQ
Procedure: as §1

[8] = molecular target: T7, Human PD-1 (Sino Biological Inc., Beijing, China) (human, UniProt Q15116 25-167); test: indirect ELISA, human PD-1 coated at 0.1 µg/mL
T7 construct: also called hPD-1
Procedure: The PBS buffer was aspirated from the 96-well plate, and the plate was washed once with PBST (PBS containing 0.05% Tween 20, pH 7.4). 200 μL of PBST/1% no-fat milk was added to each well and incubated at room temperature for 1 h for blocking. The blocking solution was removed and the plate was washed 3 times with PBST. […] The reaction solution was removed and the plate was washed 3 times with PBST. […] The plate was washed 3 times with PBST.

T3 sequence (Q15116 25-170): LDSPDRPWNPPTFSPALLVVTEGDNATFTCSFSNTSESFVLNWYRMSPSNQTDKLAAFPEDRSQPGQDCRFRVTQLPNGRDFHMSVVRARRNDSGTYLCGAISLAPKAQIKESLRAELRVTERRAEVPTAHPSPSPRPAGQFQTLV
T5 sequence (B0LAJ3 entry or part of it limits assumed): as the sequence (Q15116 25-170) above, with D2E, P10A, V19L, T35A, Q75R, T144A counted along it
T7 sequence (Q15116 25-167 limits assumed): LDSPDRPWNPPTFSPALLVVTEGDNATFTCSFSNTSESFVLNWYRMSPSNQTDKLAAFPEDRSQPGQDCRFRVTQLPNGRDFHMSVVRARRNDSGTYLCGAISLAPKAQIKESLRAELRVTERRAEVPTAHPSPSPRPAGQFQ
T4 sequence (P16410 36-162 limits assumed): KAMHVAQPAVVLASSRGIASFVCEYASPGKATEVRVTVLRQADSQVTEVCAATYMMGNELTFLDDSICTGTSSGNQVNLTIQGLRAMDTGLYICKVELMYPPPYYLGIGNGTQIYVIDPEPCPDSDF

binding result [1]: no binding (tested: 10 µg/mL)
binding result [2]: no binding (tested: 10 µg/mL)
Kd [3]: < 1 pM
koff [3]: < 1e-07 s⁻¹
kon [3]: 109000 M⁻¹ s⁻¹
binding result [4]: no binding (tested: 10 µg/mL)
EC50 (read off the curve) [5]: ~4 ng/mL
EC50 (read off the curve) [6]: ~3 ng/mL
binding result [7]: no binding (tested: 10 µg/mL)
EC50 [8]: ~2 ng/mL
B1: murine monoclonal antibody AB12M1 (antibody, mouse IgG2b, V domains shown)
VH: EVKLVESGGGLVKPGGSLKLSCAASGFTFSSYGMSWVRQTPEKRLEWVATISGGGRDTYYPDSVKGRFTISRDNAKNNLYLQMSSLRSEDTALYYCARQKDTSWFVHWGQGTLVTVSA
VL: not shown
notes: subclass identified as mouse IgG2b (Kappa), purified from hybridoma supernatant; also called antibody of hybridoma clone #32
